Among the data in the supplement of paper PMC10567573 are protein stability index values, retold here.

B1: HNF4A (parent)
chain: RFSRQCVVDKDKRNQCRYCRLKKC
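Further: lentivirally expressed fusions sorted by FACS into six bins by GFP to DsRed ratio, PSI derived from sequencing read proportions per bin multiplied by bin number.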

In this data set the parent is B1. Nature of the data set: protein stability index of a GFP-peptide fusion (GPS, HEK-293T) (PSI 1-6); higher = more stable. The settings on record: c terminus: a fixed tail appended.
Regarding RFSRQCVVDKDKRNQGRYCRLKKC [C16G], the protein stability index amounted to 2.61.

As for RFSRQCVVDKDKRNQKRYCRLKKC [C16K], the protein stability index stood at 3.1.

Consider RFSRQCVVDKDKRNQQRYCRLKKC [C16Q], for which the protein stability index is 3.38.

For RFSRQCVVDKDKRNQCRYCRQKKC [L21Q], the protein stability index was found to be 3.64.

Consider RFSRQCVVDKDKRNQCRYCREKKC [L21E], for which the protein stability index is 3.08.

Regarding RFSRQCVVDKDKRNQCRYCRCKKC [L21C], the protein stability index turned out to be 3.73.

As for RFSRQCVVDKDKRNQCRYCRAKKC [L21A], the protein stability index turned out to be 3.51.

Take RFSRQCVVDKDKRNQCRYCRYKKC [L21Y]: the protein stability index worked out at 3.01.

As to RFSRQCVVDKDKRNQCRYCRPKKC [L21P], the protein stability index came out at 2.94.

On to RFSRQCVVDKDKRNQCRYCRLKKM [C24M], for which the protein stability index was found to be 3.33.

RFSRQCVVDKDKRNQCRYCRLKKQ [C24Q]: the protein stability index was 2.5.

Turning to RFSRQCVVDKDKRNQCRYCRLKKF [C24F], the protein stability index is 2.55.

RFSRQCVVDKDKRNQCRYCRLKKR [C24R]: the protein stability index amounted to 2.42.

With RFSRQCVVDKDKRNLCRYCRLKKC [Q15L], the protein stability index was 2.78.

With RFSRQCVVDKDKRNICRYCRLKKC [Q15I], the protein stability index stood at 2.33.

As to RFSRQCVVDKDKRNHCRYCRLKKC [Q15H], the protein stability index is 1.96.

As for RFSRQCVVDKDKRNVCRYCRLKKC [Q15V], the protein stability index was 2.52.

RFSRQCVVDKDKGNQCRYCRLKKC [R13G]: the protein stability index is 2.21.

For the variant RFSRQCVVDKDKDNQCRYCRLKKC [R13D], the protein stability index stood at 3.2.

Turning to RFSRQCVVDKDKCNQCRYCRLKKC [R13C], the protein stability index came to 3.06.

For RFSRICVVDKDKRNQCRYCRLKKC [Q5I], the protein stability index was found to be 2.16.

Consider RFSRWCVVDKDKRNQCRYCRLKKC [Q5W], for which the protein stability index turned out to be 2.4.

With RFSRVCVVDKDKRNQCRYCRLKKC [Q5V], the protein stability index worked out at 2.26.

As to RFSRMCVVDKDKRNQCRYCRLKKC [Q5M], the protein stability index was determined as 3.11.

For RFSRTCVVDKDKRNQCRYCRLKKC [Q5T], the protein stability index was 2.16.

In the case of RFSRQCVVDKDKRNQCRYCRLKWC [K23W], the protein stability index came to 2.05.

RFSRQCVVDKDKRNQCRYCRLKDC [K23D]: the protein stability index came out at 1.65.

As for RFSRQCVVDKDKRNQCRYCRLKAC [K23A], the protein stability index stood at 1.89.

With RFSRQCVVDKDKRNQCRYCRLKCC [K23C], the protein stability index came out at 2.54.

Take RFSNQCVVDKDKRNQCRYCRLKKC [R4N]: the protein stability index amounted to 2.53.

Consider RFSVQCVVDKDKRNQCRYCRLKKC [R4V], for which the protein stability index is 2.59.

As for RFSTQCVVDKDKRNQCRYCRLKKC [R4T], the protein stability index was 1.62.

On to RFSMQCVVDKDKRNQCRYCRLKKC [R4M], for which the protein stability index came out at 2.91.

With RFSRQCVVDKDKRQQCRYCRLKKC [N14Q], the protein stability index was found to be 2.18.

RFSRQCVVDKDKRKQCRYCRLKKC [N14K]: the protein stability index worked out at 2.23.

Turning to RFSRQCVVDKDKRIQCRYCRLKKC [N14I], the protein stability index worked out at 2.39.

Turning to RFSRQCVVDKDKRMQCRYCRLKKC [N14M], the protein stability index was determined as 1.98.

For RFSRQCVVDKDKRDQCRYCRLKKC [N14D], the protein stability index stood at 2.24.

RQSRQCVVDKDKRNQCRYCRLKKC [F2Q]: the protein stability index was determined as 3.63.

In the case of RNSRQCVVDKDKRNQCRYCRLKKC [F2N], the protein stability index came to 3.39.

For the variant RTSRQCVVDKDKRNQCRYCRLKKC [F2T], the protein stability index worked out at 3.08.

For the variant RFSRQCVVDKDKRNQCNYCRLKKC [R17N], the protein stability index is 3.45.

In the case of RFSRQCVVDKDKRNQCWYCRLKKC [R17W], the protein stability index is 2.42.

Regarding RFSRQCVVDKDKRNQCFYCRLKKC [R17F], the protein stability index came to 2.57.

For RFSRQCVVDKDKRNQCQYCRLKKC [R17Q], the protein stability index was found to be 3.42.

As to MFSRQCVVDKDKRNQCRYCRLKKC [R1M], the protein stability index stood at 1.54.

Regarding PFSRQCVVDKDKRNQCRYCRLKKC [R1P], the protein stability index came to 2.5.

GFSRQCVVDKDKRNQCRYCRLKKC [R1G]: the protein stability index was 2.64.

As for KFSRQCVVDKDKRNQCRYCRLKKC [R1K], the protein stability index was found to be 2.4.

With AFSRQCVVDKDKRNQCRYCRLKKC [R1A], the protein stability index came out at 2.4.

As for RFSRQCVVDLDKRNQCRYCRLKKC [K10L], the protein stability index is 2.37.

With RFSRQCVVDVDKRNQCRYCRLKKC [K10V], the protein stability index turned out to be 2.47.

As to RFSRQCVVDEDKRNQCRYCRLKKC [K10E], the protein stability index was determined as 2.14.

On to RFSRQCVVDADKRNQCRYCRLKKC [K10A], for which the protein stability index turned out to be 1.7.

Take RFSRQCVVDTDKRNQCRYCRLKKC [K10T]: the protein stability index came out at 2.41.

Take RFSRQCVVDKDKRNQCRYCFLKKC [R20F]: the protein stability index was 2.12.

In the case of RFSRQCVVDKDKRNQCRYCNLKKC [R20N], the protein stability index is 2.62.

RFSRQCVVDKDKRNQCRYCLLKKC [R20L]: the protein stability index was 2.35.

Take RFSRQCVVDKDKRNQCRYCGLKKC [R20G]: the protein stability index is 3.23.

Take RFSRQCVVDKDKRNQCRYCVLKKC [R20V]: the protein stability index stood at 2.56.

Regarding RFSRQCVVDKDKRNQCRYCHLKKC [R20H], the protein stability index is 1.58.

In the case of RFSRQCVVDKDKRNQCRYCTLKKC [R20T], the protein stability index worked out at 2.74.

As for RFSRQCVVDKDKRNQCRYCDLKKC [R20D], the protein stability index was 3.

In the case of RFSRQCVVDKDKRNQCRYCILKKC [R20I], the protein stability index came out at 2.42.

With RFSRQCYVDKDKRNQCRYCRLKKC [V7Y], the protein stability index was 2.93.

For RFSRQCSVDKDKRNQCRYCRLKKC [V7S], the protein stability index was 2.1.

RFSRQCWVDKDKRNQCRYCRLKKC [V7W]: the protein stability index is 2.47.

RFSRQCHVDKDKRNQCRYCRLKKC [V7H]: the protein stability index turned out to be 2.38.

For RFSRQCDVDKDKRNQCRYCRLKKC [V7D], the protein stability index is 4.05.

For the variant RFSRQCIVDKDKRNQCRYCRLKKC [V7I], the protein stability index amounted to 2.13.

In the case of RFSRQCAVDKDKRNQCRYCRLKKC [V7A], the protein stability index was determined as 2.4.

With RFSRQCVVDKLKRNQCRYCRLKKC [D11L], the protein stability index was determined as 2.21.

In the case of RFSRQCVVDKFKRNQCRYCRLKKC [D11F], the protein stability index is 2.63.

As for RFSRQCVVDKSKRNQCRYCRLKKC [D11S], the protein stability index is 2.04.

For the variant RFSRQCVVMKDKRNQCRYCRLKKC [D9M], the protein stability index is 3.42.

For the variant RFSRQCVVKKDKRNQCRYCRLKKC [D9K], the protein stability index was 2.13.

Turning to RFSRQCVVDKDKRNQCRYCRLHKC [K22H], the protein stability index was 1.71.

For RFSRQCVVDKDKRNQCRYCRLFKC [K22F], the protein stability index came out at 1.8.

On to RFSRQCVVDKDKRNQCRYCRLMKC [K22M], for which the protein stability index came to 1.56.

Consider RFSRQCVVDKDKRNQCRYNRLKKC [C19N], for which the protein stability index was found to be 3.71.

With RFSRQCVVDKDKRNQCRYQRLKKC [C19Q], the protein stability index was 3.73.

Regarding RFLRQCVVDKDKRNQCRYCRLKKC [S3L], the protein stability index was 2.08.

With RFKRQCVVDKDKRNQCRYCRLKKC [S3K], the protein stability index was 3.33.

For the variant RFCRQCVVDKDKRNQCRYCRLKKC [S3C], the protein stability index worked out at 3.62.

Turning to RFSRQCVWDKDKRNQCRYCRLKKC [V8W], the protein stability index was 2.4.

Take RFSRQCVIDKDKRNQCRYCRLKKC [V8I]: the protein stability index worked out at 2.9.

For RFSRQCVFDKDKRNQCRYCRLKKC [V8F], the protein stability index was 2.38.

As to RFSRQSVVDKDKRNQCRYCRLKKC [C6S], the protein stability index was 2.72.

Turning to RFSRQVVVDKDKRNQCRYCRLKKC [C6V], the protein stability index came to 2.62.

In the case of RFSRQCVVDKDGRNQCRYCRLKKC [K12G], the protein stability index amounted to 2.76.

On to RFSRQCVVDKDHRNQCRYCRLKKC [K12H], for which the protein stability index was determined as 2.93.

On to RFSRQCVVDKDLRNQCRYCRLKKC [K12L], for which the protein stability index came to 1.91.

Turning to RFSRQCVVDKDWRNQCRYCRLKKC [K12W], the protein stability index worked out at 2.28.

As to RFSRQCVVDKDQRNQCRYCRLKKC [K12Q], the protein stability index was 2.52.
